Experimental data taken from patent US20110274691A1 (Amgen, published 2011).
Changes are numbered by the printed parent chain.

What was measured:
human ferroportin = target: T1, human ferroportin (human, UniProt Q9NP59 1-571); test: cell-based or functional assay
T1 sequence: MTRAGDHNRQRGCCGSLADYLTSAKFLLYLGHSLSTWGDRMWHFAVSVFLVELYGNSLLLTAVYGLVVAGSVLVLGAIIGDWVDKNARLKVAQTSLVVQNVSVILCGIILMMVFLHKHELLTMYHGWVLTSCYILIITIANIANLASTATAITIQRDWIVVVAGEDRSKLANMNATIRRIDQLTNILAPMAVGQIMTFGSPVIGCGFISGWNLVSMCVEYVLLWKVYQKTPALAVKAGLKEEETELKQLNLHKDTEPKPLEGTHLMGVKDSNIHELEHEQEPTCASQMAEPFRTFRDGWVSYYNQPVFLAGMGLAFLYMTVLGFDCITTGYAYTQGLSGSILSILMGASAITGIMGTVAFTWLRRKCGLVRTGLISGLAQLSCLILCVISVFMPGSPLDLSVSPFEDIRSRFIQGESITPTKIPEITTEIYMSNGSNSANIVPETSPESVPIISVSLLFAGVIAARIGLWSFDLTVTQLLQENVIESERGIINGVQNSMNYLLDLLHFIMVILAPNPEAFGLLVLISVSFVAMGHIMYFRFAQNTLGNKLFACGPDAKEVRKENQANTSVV

[1] = target: T2, ferroportin peptide sequence ANIVPETSPES (residues 439-449 of SEQ ID NO: 16) (human); test: binding to 7-10 amino acid peptides immobilized on cellulose membrane
T2 peptide: ANIVPETSPES
Text: None of the other ferroportin-binding antibodies bound appreciably to this peptide. The location of the 31A5 epitope was further narrowed by detecting binding to ferroportin peptides ranging in length from 7 to 10 amino acids immobilized on a cellulose membrane. […] Cysteine residue 326 of SEQ ID NO: 16 is located in a different extracellular loop from the loop containing the 31A5 epitope (i.e., loop 3 of FIG. 1A).

[2] = target: T3, ferroportin peptide Fc conjugate 2 (Peptide 2: ITIQRDWIVVVAGEDRSKLANMNATIRRIDQL, amino acids 152-183 of SEQ … (human)); test: Western blot of peptide-Fc conjugates
T3 construct: not shown: Fc moiety
T3 chain: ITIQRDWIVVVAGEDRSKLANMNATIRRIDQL
Procedure: (§1) 31A5 was then tested by Western analysis for its ability to recognize a panel of ferroportin peptide-Fc conjugates, where the peptide moiety was derived from different, non-overlapping regions of the ferroportin sequence. 500 ng of ferroportin peptide Fc conjugates 1-5 (Peptide 1: […], amino acids 75-96 of SEQ ID NO: 16; Peptide 2: […], amino acids 152-183 of SEQ ID NO: 16; Peptide 3: […], amino acids 330-338 of SEQ ID NO: 16; Peptide 4: […], amino acids 393-446 of SEQ ID NO: 16; and Peptide 5: […], amino acids: 542-571 of SEQ ID NO: 16) were run on a NuPAGE 4-12% gel, transferred to a nitrocellulose membrane and probed using […] 31A5 followed by an anti-mouse secondary antibody.

[3] = target: T4, ferroportin peptide Fc conjugate 5 (Peptide 5: AQNTLGNKLFACGPDAKEVRKENQANTSVV, amino acids 542-571 of SEQ ID … (human)); test: Western blot of peptide-Fc conjugates
T4 construct: not shown: Fc moiety
T4 chain: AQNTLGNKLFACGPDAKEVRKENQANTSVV
Procedure: as §1

[4] = target: T5, ferroportin fragment TEIYMSNGSNSA (amino acids 428-439 of SEQ ID NO: 16) (human); test: PepSpot peptide array, 1 ug/mL antibody
T5 construct: Stretch covered by several overlapping 10-mers of the PepSpot array; 12 residues as printed
T5 peptide: TEIYMSNGSNSA
Text: (§2) The PepSpot technique (Heiskanen et al., Virology, 262:321-332, 1999) was used to identify the binding epitopes on ferroportin for human antibodies 37A2, 37B9, 37C8, 37G8, 38A4, 38C8, 38D2, 38E3 and 38G6. Briefly, an array of overlapping 10-mer peptides was synthesized on a cellulose membrane by a solid phase peptide synthesis spotting method. These peptide sequences were derived from amino acids 1-571 of SEQ ID NO: 16. The array was then soaked in 0.05% Tween-20/PBS (PBS-T), blocked with 5% BSA in PBS-T for 3 hours at room temperature and subsequently washed three times with PBS-T. The prepared array was then incubated for 90 minutes at room temperature with 1 μg/mL solution of antibodies 37A2, 37B9, 37C8, 37G8, 38A4, 38C8, 38D2, 38E3 or 38G6 in 5% nonfat dry milk. After binding, the membrane was washed three times with PBS-T and subsequently incubated for 1 hour at room temperature with a goat anti-human light chain antibody conjugated to horseradish peroxidase diluted 1:50,000 in 5% nonfat dry milk. The membrane was then washed three times with PBS-T and any binding was determined using chemiluminescence detection on X-ray film.
(§3) Antibodies 37A2, 37B9, 37C8, 37G8, 38A4, 38C8, 38D2, 38E3 and 38G6 bound to epitopes within, overlapping or near loops 1, 2, 3 and 4 of the ferroportin sequence set forth in FIG. 1A.

ferroportin-V5 = target: T6, ferroportin-V5 (human, UniProt Q9NP59 1-571); test: cell-based or functional assay
T6 sequence: T1 sequence

[5] = target: T7, ferroportin fragment ITTEIYMSNGSNS (amino acids 426-438 of SEQ ID NO: 16) (human); test: PepSpot peptide array, 1 ug/mL antibody
T7 construct: Stretch covered by several overlapping 10-mers of the PepSpot array; 13 residues as printed
T7 peptide: ITTEIYMSNGSNS
Text: as §2, §3

[6] = target: T8, ferroportin fragment AFLYMTVLGF (amino acids 315-324 of SEQ ID NO: 16) (human); test: PepSpot peptide array, 1 ug/mL antibody
T8 construct: PepSpot array of overlapping 10-mers on cellulose membrane
T8 peptide: AFLYMTVLGF
Text: as §2, §3

[7] = target: T9, ferroportin fragment YHGWVLTSCY (amino acids 124-133 of SEQ ID NO: 16) (human); test: PepSpot peptide array, 1 ug/mL antibody
T9 construct: PepSpot array of overlapping 10-mers on cellulose membrane
T9 peptide: YHGWVLTSCY
Text: as §2, §3

[8] = target: T10, ferroportin fragment RDGWVSYYNQ (amino acids 296-305 of SEQ ID NO: 16) (human); test: PepSpot peptide array, 1 ug/mL antibody
T10 construct: PepSpot array of overlapping 10-mers on cellulose membrane
T10 peptide: RDGWVSYYNQ
Text: as §2, §3

[9] = target: T11, ferroportin fragment SITPTKIPEI (amino acids 417-426 of SEQ ID NO: 16) (human); test: PepSpot peptide array, 1 ug/mL antibody
T11 construct: PepSpot array of overlapping 10-mers on cellulose membrane
T11 peptide: SITPTKIPEI
Text: as §2, §3

B1: anti-ferroportin antibody 31A5 (antibody, V domains shown)
VH: QVQLQQSGAELARPGASVKLSCKASGYTFTSYGISWVKQRTGQGLEWIGEIYPRSGNAYYNEKFKVKATLTIDKSSSTAYMELRSLTSEDSAVYFCGGNYYWGQGTTLTVSS
VL: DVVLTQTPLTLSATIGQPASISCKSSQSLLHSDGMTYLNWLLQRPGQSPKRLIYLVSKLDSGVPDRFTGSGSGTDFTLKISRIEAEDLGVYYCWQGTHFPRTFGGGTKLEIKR
notes: the ends of the mature chains (466, 239) are printed in CLM-00028; also called monoclonal 31A5; mouse anti-human ferroportin antibody
Human ferroportin
  decreased intracellular concentration of iron (IRE beta-lactamase reporter, 293/Fpn/BLA cells, 36 nM hepcidin), IC50: 30 nM
[1]
  binding result: binds
[2]
  binding result: no binding
[3]
  binding result: no binding

B2: antibody 38G6 (antibody, V domains shown)
VH: EVQVVESGGGLVQPGGSLRLSCAASGFTFSSYSVNWVRQAPGKGLEWVSYISGSSSTVHYADSVKGRFTISRDTAKNSVYLQLNSLRDEDTALYYCARWGTRQGHYFGMDVWGQGTTVTVSS
VL: QPVLTQPPSASASLGASVTLTCTLSSGYNNYKVDWFQQRPGRGPRFVMRVGTGGIVGSKGDGIPDRFSVLGSGLNRYLTIKNIQEEDESDYHCGADHASGNNFVYVFGTGTKVTVL
[4]
  binding result: binds
Human ferroportin
  decreased intracellular concentration of iron (IRE beta-lactamase reporter, 293/Fpn/BLA cells, 36 nM hepcidin), IC50: 4.3 nM
ferroportin-V5
  preserved ferroportin activity (ferroportin-V5 fluorescence after 37 nM hepcidin), IC50: 1.9 nM

B3: antibody 38A4 (antibody, V domains shown)
VH: EVQLLESGGGLVQPGGSLRLSCAASGFTFSSFAMTWVRQAPGKGLEWVSAIGGSGRNTYYADSVKGRFTISRDNSKNTLYLQMSSLRAEDTAVYYCAKEGAMARPPRGLDVWGQGTTVTVSS
VL: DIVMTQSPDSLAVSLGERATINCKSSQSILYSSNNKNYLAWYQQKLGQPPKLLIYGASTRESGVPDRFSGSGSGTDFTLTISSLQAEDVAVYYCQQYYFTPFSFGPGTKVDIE
[5]
  binding result: binds
Human ferroportin
  decreased intracellular concentration of iron (IRE beta-lactamase reporter, 293/Fpn/BLA cells, 36 nM hepcidin), IC50: 0.4 nM
ferroportin-V5
  preserved ferroportin activity (ferroportin-V5 fluorescence after 37 nM hepcidin), IC50: 2.8 nM

B4: antibody 38E3 (antibody, V domains shown)
VH: QVQLVQSGAEVKKPGSSVKVSCKASGYTLTGYYMHWVRQAPGQGLEWMGWINPHTGGKNYAQKFQGRVTLTRDTSISTAYMELNSLRSDDTAVYYCARDPSLSVTGPSFYYYGLDVWGQGTTVTVSS
VL: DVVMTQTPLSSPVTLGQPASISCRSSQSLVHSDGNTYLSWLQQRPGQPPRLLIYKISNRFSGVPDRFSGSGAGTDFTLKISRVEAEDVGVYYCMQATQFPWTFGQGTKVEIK
[6]
  binding result: binds
Human ferroportin
  decreased intracellular concentration of iron (IRE beta-lactamase reporter, 293/Fpn/BLA cells, 36 nM hepcidin), IC50: 15 nM

B5: antibody 38C8 (antibody, V domains shown)
VH: B4 VH with A61G, S77N, L102I, T105A, Y112F
VL: not shown
[6]
  binding result: binds
Human ferroportin
  decreased intracellular concentration of iron (IRE beta-lactamase reporter, 293/Fpn/BLA cells, 36 nM hepcidin), IC50: 0.9 nM
ferroportin-V5
  preserved ferroportin activity (ferroportin-V5 fluorescence after 37 nM hepcidin), IC50: 0.3 nM

B6: antibody 37G8 (antibody, V domains shown)
VH: B4 VH with S77N, S85T, S103V
VL: DIVMTQTPLSSPVTHGQPASISCRSSQSLVHSDGNTYLSWLQQRPGQPPRLLIYKISNRLSGVPDRFSGSGTGTDFTLKISRVEAEDVGVYVCMQATQFPWTFGQGTKVEIK
[6]
  binding result: binds
Human ferroportin
  decreased intracellular concentration of iron (IRE beta-lactamase reporter, 293/Fpn/BLA cells, 36 nM hepcidin), IC50: 1.6 nM
ferroportin-V5
  preserved ferroportin activity (ferroportin-V5 fluorescence after 37 nM hepcidin), IC50: 0.8 nM

B7: antibody 37B9 (antibody, V domains shown)
VH: B4 VH with K63R, I76V, S77N, S85T, S103V
VL: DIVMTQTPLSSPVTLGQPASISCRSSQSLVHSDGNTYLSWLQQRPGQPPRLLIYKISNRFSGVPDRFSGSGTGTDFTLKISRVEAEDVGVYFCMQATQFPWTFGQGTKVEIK
[6]
  binding result: binds
Human ferroportin
  decreased intracellular concentration of iron (IRE beta-lactamase reporter, 293/Fpn/BLA cells, 36 nM hepcidin), IC50: 3.6 nM
ferroportin-V5
  preserved ferroportin activity (ferroportin-V5 fluorescence after 37 nM hepcidin), IC50: 0.2 nM

B8: antibody 37C8 (antibody, V domains shown)
VH: B4 VH with S77N, S85T, L102I, S103A, T105A
VL: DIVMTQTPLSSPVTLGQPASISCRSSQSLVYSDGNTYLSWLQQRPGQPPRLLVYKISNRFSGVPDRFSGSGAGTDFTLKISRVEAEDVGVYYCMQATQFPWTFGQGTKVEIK
[6]
  binding result: binds
Human ferroportin
  decreased intracellular concentration of iron (IRE beta-lactamase reporter, 293/Fpn/BLA cells, 36 nM hepcidin), IC50: 0.8 nM
ferroportin-V5
  preserved ferroportin activity (ferroportin-V5 fluorescence after 37 nM hepcidin), IC50: 0.2 nM

B9: antibody 38D2 (antibody, V domains shown)
VH: QVQLVQSGAEVKKPGASVKVSCKASGYTLTGYYLHWVRQAPGQELEWMGWINPFTGATDYAQKFQGRVTMTRDTSINTAHMELSRLRSDDTAVYYCARDPSLQNSYHYYVMDVWGQGTTVTVSS
VL: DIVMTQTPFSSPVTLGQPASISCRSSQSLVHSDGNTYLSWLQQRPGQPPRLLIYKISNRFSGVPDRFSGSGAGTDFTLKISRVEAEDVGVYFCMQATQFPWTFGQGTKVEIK
[7]
  binding result: binds
[8]
  binding result: binds
Human ferroportin
  decreased intracellular concentration of iron (IRE beta-lactamase reporter, 293/Fpn/BLA cells, 36 nM hepcidin), IC50: 10 nM
ferroportin-V5
  preserved ferroportin activity (ferroportin-V5 fluorescence after 37 nM hepcidin), IC50: 5.4 nM

B10: antibody 37A2 (antibody, V domains shown)
VH: QVQLVESGGGVVQPGRSLRLSCAASGFTFSGYGMHWVRQAPGRGLEWVAVIWPDGTNKYYADSVKGRFTISRDNSKNKLYLQMNSLRAEDTAVYYCARGGATAVFGMNVWGQGTTVTVSS
VL: SYELTQPPSVSVSPGQTARITCSGDELPKQYAYWYQQKAGQAPVMVIHKDSERPSGIPERFSGSSAGTIVTLTISGVQAEDEADYYCQSPDSRRTVIFGGGTKLTVL
[9]
  binding result: binds
Human ferroportin
  decreased intracellular concentration of iron (IRE beta-lactamase reporter, 293/Fpn/BLA cells, 36 nM hepcidin), IC50: 4.5 nM
ferroportin-V5
  preserved ferroportin activity (ferroportin-V5 fluorescence after 37 nM hepcidin), IC50: 2.5 nM
